Legend:
Experiment in all cases: cell-based or functional assay
[1] = biological target: T1, SUDV GP on rVSV particles (Sudan virus (SUDV), UniProt Q66814 33-676)
T1 sequence: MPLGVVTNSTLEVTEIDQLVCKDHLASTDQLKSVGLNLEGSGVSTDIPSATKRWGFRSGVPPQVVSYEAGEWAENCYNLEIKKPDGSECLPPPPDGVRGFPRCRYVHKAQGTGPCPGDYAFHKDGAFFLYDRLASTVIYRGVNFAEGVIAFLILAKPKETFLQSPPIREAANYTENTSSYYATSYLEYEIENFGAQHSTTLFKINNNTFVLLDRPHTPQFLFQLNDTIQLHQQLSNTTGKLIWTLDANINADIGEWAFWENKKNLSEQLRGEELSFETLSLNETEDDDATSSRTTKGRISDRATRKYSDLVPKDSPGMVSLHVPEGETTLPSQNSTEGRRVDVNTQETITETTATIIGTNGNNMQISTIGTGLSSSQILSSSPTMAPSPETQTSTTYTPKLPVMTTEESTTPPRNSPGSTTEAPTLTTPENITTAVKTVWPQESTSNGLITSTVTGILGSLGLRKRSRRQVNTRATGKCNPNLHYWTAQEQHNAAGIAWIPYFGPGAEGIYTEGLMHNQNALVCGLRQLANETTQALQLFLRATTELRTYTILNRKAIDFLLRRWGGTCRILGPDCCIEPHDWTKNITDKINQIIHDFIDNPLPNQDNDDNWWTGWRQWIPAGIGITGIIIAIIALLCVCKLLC

[2] = biological target: T2, RESTV GP on rVSV particles (Reston virus (RESTV), UniProt Q66799 34-677)
T2 sequence: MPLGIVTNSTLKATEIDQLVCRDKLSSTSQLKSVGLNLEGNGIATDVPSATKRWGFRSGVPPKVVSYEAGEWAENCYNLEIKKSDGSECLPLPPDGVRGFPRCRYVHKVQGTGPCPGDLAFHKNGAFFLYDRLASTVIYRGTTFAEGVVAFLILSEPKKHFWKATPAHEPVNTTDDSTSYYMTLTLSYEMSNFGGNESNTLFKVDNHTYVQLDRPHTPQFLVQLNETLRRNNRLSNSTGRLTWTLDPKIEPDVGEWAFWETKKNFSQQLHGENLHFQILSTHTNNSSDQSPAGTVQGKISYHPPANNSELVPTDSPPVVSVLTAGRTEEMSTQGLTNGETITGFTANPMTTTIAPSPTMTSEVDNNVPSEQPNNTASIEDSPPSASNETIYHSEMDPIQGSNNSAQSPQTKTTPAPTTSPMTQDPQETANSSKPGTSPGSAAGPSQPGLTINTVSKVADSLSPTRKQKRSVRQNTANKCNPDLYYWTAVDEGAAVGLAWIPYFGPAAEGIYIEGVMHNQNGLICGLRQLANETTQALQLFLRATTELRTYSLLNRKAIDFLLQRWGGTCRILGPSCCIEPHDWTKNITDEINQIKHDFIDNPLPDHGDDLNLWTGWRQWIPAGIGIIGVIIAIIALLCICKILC

[3] = biological target: BDBV GP on rVSV particles (Bundibugyo virus (BDBV))
[4] = biological target: T3, TAFV GP on VSV pseudotype particles (Tai Forest virus (TAFV), UniProt Q66810 33-676)
T3 sequence: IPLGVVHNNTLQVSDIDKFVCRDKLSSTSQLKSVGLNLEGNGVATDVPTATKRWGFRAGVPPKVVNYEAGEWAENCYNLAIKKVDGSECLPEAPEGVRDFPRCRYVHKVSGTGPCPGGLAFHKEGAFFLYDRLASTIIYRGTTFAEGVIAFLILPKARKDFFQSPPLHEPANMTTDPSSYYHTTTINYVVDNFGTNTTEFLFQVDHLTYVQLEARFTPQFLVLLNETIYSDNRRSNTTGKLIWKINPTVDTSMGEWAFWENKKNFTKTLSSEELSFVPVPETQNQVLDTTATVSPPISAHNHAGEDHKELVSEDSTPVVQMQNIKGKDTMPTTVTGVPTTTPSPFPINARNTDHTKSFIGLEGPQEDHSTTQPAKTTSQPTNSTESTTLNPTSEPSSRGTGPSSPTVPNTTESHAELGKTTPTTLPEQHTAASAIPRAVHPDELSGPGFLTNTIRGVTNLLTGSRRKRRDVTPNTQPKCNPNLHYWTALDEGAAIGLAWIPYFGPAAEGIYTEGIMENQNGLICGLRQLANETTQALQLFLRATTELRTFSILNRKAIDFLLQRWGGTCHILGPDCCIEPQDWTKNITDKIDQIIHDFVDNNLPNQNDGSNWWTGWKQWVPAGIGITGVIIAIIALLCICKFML

[5] = biological target: T4, EBOV GP on rVSV particles (Ebola virus (EBOV), UniProt Q05320 33-676)
T4 sequence: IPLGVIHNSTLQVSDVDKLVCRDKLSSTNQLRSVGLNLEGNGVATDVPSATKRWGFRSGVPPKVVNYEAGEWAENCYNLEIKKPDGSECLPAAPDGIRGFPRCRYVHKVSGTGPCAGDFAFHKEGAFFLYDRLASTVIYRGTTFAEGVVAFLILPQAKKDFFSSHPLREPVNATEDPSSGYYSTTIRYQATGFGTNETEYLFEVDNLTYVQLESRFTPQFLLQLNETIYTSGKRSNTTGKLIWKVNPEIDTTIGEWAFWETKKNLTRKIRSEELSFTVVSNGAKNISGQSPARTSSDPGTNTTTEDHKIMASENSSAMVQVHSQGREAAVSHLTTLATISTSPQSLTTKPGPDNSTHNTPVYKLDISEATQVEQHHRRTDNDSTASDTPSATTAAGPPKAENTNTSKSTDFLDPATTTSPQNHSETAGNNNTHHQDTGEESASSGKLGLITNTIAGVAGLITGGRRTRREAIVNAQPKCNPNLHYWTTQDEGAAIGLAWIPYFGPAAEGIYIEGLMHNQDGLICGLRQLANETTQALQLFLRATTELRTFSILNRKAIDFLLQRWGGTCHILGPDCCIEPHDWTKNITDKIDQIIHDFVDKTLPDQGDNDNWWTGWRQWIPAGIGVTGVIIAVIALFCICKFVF

B1: mAb PE-87 (antibody, V domains shown)
VH: QVQLVQSGVTLVQPGGSLRVSCAASGFTFSSYAMSWVRQAPGKGLEWVSAISGLGGSTYYADSVKGRFTISRDNSKNTLYLQMNSLRAEDTAVYYCAKDHRVWAAGYHFDYWGQGALVTVSS
VL: DIVLTQSPSTLSASVGDRVTITCRASQSISSWLAWYQQKPGEAPKLLISDASSLESGVPSRFSGSGSGTEFTLTISSLQPDDFATYYCQQYYSSPTFGGGTKVEIK
IC50, half-maximal neutralization of viral infectivity (rVSV-GP) [1]: 0.8 nM
IC50, half-maximal neutralization of viral infectivity (rVSV-GP) [2]: 0.1 nM
IC50, half-maximal neutralization of viral infectivity (rVSV-GP) [3]: 0.4 nM
IC50, half-maximal neutralization of viral infectivity (rVSV-GP) [4]: 0.9 nM
IC50, half-maximal neutralization of viral infectivity (rVSV-GP) [5]: 1 nM
